According to US20230365662A1:
“And” between values parts separate entries of the source, which are not always exact repeats. Identical values can stand only once.

Key:
[1] = target: HRgpA-6H (Porphyromonas gingivalis) (UniProt P28784); assay: ELISA on coated HRgpA-6H (coating concentration not stated); secondary Anti-BSA (HRP)
[2] = target: HRgpA-6H (Porphyromonas gingivalis) (UniProt P28784); assay: ELISA on coated HRgpA-6H (coating concentration not stated); secondary Mouse Anti-Human IgG, F(ab')2
[3] = target: HRgpA-6H (Porphyromonas gingivalis) (UniProt P28784); assay: ELISA on coated HRgpA-6H (coating concentration not stated); secondary Goat Anti-Human IgG, F(ab')2
[4] = target: HRgpA-6H (Porphyromonas gingivalis) (UniProt P28784); assay: ELISA on coated HRgpA-6H (coating concentration not stated); secondary Goat Anti-Human IgG (H+L)
[5] = target: P. gingivalis laboratory strains, serotypes and human clinical isolates (whole cells); assay: immunogold SEM
[6] = target: Porphyromonas gingivalis strain W83 whole cells (surface gingipain/adhesin/hemagglutinin complex); assay: scanning electron microscopy, gold-labelled KB001
[7] = target: Porphyromonas gingivalis strain W83 whole cells (surface gingipain/adhesin/hemagglutinin complex)
[8] = target: HRgpA-6H (Porphyromonas gingivalis) (UniProt P28784); assay: ELISA, HRgpA-6H coated 2 ug/ml; mouse Fab FASEBA supernatant; Goat Anti-MOUSE IgG (Fab specific) [HRP]
[9] = target: HRgpA-6H (Porphyromonas gingivalis) (UniProt P28784); assay: ELISA, HRgpA-6H coated 0.25 ug/ml; mouse Fab FASEBA supernatant; Goat Anti-MOUSE IgG (Fab specific) [HRP]
[10] = target: HRgpA-6H (Porphyromonas gingivalis) (UniProt P28784); assay: ELISA, HRgpA-6H coated 1 ug/ml; mouse Fab FASEBA supernatant; Goat Anti-MOUSE IgG (Fab specific) [HRP]
[11] = target: HRgpA-6H (Porphyromonas gingivalis) (UniProt P28784); assay: ELISA, HRgpA-6H coated 0.5 ug/ml; mouse Fab FASEBA supernatant; Goat Anti-MOUSE IgG (Fab specific) [HRP]
[12] = target: HRgpA-6H (Porphyromonas gingivalis) (UniProt P28784); assay: ELISA, HRgpA-6H coated 0.125 ug/ml; mouse Fab FASEBA supernatant; Goat Anti-MOUSE IgG (Fab specific) [HRP]
[13] = target: HRgpA-6H (Porphyromonas gingivalis) (UniProt P28784); assay: ELISA, HRgpA-6H coated 0.0625 ug/ml; mouse Fab FASEBA supernatant; Goat Anti-MOUSE IgG (Fab specific) [HRP]

In the case of “non-related FASEBA supernatant (NC) (Fab)”, the OD450 [1] is reported as 1.09, the OD450 [2] is reported as 0.552 and 0.288 and the OD450 [3] is reported as 0.672. For the same molecule, the OD450 [4] was 1.15 and 0.736.

B1: KB001 (antibody, V domains shown)
VH: EVQLKQSGPGLVAPSQSLSITCTVSGFSLSIYSVHWVRQPPGKGLEWLGMIWGGGSSDYNSALKSRLSISKDNSKSQVFLKMNSLQTDDTAMYYCARNGNFYAMDYWGQGTSVTVSS
VL: QIVLTQSPAIMSASLGERVTMTCTASSSVSSSFLHWYQQKPGSSPQLWIYSTSNLASGVPARFSGSGSGTSYSLTISSMEAEDAATYYCHQYHHSPYIYTFGGGTKLEIKR
B1 was tested, and the average labeled density [5] was 50 µm^-2, the IgG molecules bound per bacteria (molecules per bacterium) [6] was 60 and 80 and the Kd [7] was 11.4 nM. The Response [7] was 0.216 and 0.186 and 0.297, the koff [7] was 0.000219 s⁻¹ and the kon [7] was 19200 M⁻¹ s⁻¹.

B2: parental mouse Fab FASEBA sample (Fab, V domains shown)
VH: B1 VH
VL: B1 VL
With B2 the OD450 [8] was 2.04 and 1.98, the OD450 [9] was 1.58 and 1.51 and the OD450 [10] was 1.94 and 2.02. The OD450 [11] was 1.76 and 1.82, the OD450 [12] was 1.17 and 1.13 and the OD450 [13] was 0.755 and 0.687.
